PMC5411712

Columns and labels:
SRF (rSRF);PTEN (rPTEN) [1] = target: T1, SRF (rSRF);PTEN (rPTEN) (;, UniProt P11831;P60484 1-508;1-403, |); test: EMSA; lower mobility complex on adding rPTEN; 10 mM Tris pH 8.0, 1 mM EDTA, 8% glycerol, 10 ul, ~150 ng fluorescein-labelled DNA, 1 h at room temperature; 4-20% Tris-glycine native gel, pH 8.3
SRF (rSRF) [2] = target: T2, SRF (rSRF) (UniProt P11831 1-508); test: EMSA; 10 mM Tris pH 8.0, 1 mM EDTA, 8% glycerol, 10 ul, ~150 ng fluorescein-labelled DNA, 1 h at room temperature; 4-20% Tris-glycine native gel, pH 8.3
T2 sequence: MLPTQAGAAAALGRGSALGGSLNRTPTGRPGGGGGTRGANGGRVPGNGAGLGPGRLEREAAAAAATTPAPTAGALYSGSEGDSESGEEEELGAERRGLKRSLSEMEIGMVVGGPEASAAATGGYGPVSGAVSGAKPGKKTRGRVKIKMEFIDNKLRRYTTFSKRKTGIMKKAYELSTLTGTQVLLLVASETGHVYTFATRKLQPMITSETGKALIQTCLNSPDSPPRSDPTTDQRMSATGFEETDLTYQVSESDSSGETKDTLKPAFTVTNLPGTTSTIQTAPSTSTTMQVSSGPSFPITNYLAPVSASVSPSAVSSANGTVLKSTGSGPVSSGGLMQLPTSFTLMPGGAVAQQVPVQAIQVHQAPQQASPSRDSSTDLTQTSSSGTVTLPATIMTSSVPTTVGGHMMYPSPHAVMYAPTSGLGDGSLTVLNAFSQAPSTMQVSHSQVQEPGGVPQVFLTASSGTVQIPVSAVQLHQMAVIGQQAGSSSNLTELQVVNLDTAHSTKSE

PTEN (rPTEN) = PTEN (rPTEN) (UniProt P60484 1-403); test: EMSA; rPTEN alone; 10 mM Tris pH 8.0, 1 mM EDTA, 8% glycerol, 10 ul, ~150 ng fluorescein-labelled DNA, 1 h at room temperature; 4-20% Tris-glycine native gel, pH 8.3
SRF (rSRF) [3] = target: T2, SRF (rSRF); test: EMSA; two bands at 1 ul rSRF; single lower mobility band at saturating 3 ul; 10 mM Tris pH 8.0, 1 mM EDTA, 8% glycerol, 10 ul, ~150 ng fluorescein-labelled DNA, 1 h at room temperature; 4-20% Tris-glycine native gel, pH 8.3
SRF (rSRF);PTEN (rPTEN) [4] = target: T1, SRF (rSRF);PTEN (rPTEN); test: EMSA, supershift and western blot of EMSA; higher mobility complex than rSRF alone; supershifted by PTEN or SRF antibody; 10 mM Tris pH 8.0, 1 mM EDTA, 8% glycerol, 10 ul, ~150 ng fluorescein-labelled DNA, 1 h at room temperature; 4-20% Tris-glycine native gel, pH 8.3

B1: CArG B 20-bp probe (Acta2) (dsDNA)
DNA 1: GAGGTCCCTATATGGTTGTG
DNA 2: CACAACCATATAGGGACCTC
B1: binds (SRF (rSRF);PTEN (rPTEN) [1]); binds (SRF (rSRF) [2]).

B2: CArG A+B 95-bp probe (Acta2) (dsDNA)
DNA 1: AATTCTGGGGTGTATCTTGCCCTATATGGGATATCGCTCTGACCGTTAACTAGGACTAGCTGAGGGTAGCCTTGTTTGGCTGCATCTGTTTCTTTTCGGCTAGC
DNA 2: GCTAGCCGAAAAGAAACAGATGCAGCCAAACAAGGCTACCCTCAGCTAGTCCTAGTTAACGGTCAGAGCGATATCCCATATAGGGCAAGATACACCCCAGAATT
B2: no binding (PTEN (rPTEN)); binds (SRF (rSRF) [3]); binds (SRF (rSRF);PTEN (rPTEN) [4]).
